{"source": "patent US20250242064A1", "about": "“CXCR4-TARGETING COMPOUNDS, AND METHODS OF MAKING AND USING THE SAME” (PROVINCIAL HEALTH SERVICES AUTHORITY, priority 2022, published 2025)", "experiment": "in vivo", "design": "species or system mice", "details": "male, NOD.Cg-Rag1tm1Momll2rgtm1Wjl/SzJ (NRG), mouse, iv, total radioactivity, Mean; for tissue uptake at 1 h / tissue uptake at 3 h / tissue uptake at 24 h / tissue uptake at 72 h / tissue uptake at 120 h: Biodistribution", "summary_of_the_method": "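Male NRG mice bearing subcutaneous Z138 mantle cell lymphoma xenografts (5×10^6 cells, grown to 200-300 mm^3) injected intravenously under isoflurane with 68Ga-labelled tracers. Harvested tissues weighed and gamma-counted; uptake expressed as % ID/g.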", "note": "Where a SMILES comes first, the peptide text is derived from it. Bridges are numbered along the chain shown (N, C = ends). Side-chain parts run from the residue outwards. [ ]: non-standard residue; d: D form. The star is where a group is joined. X2 = O=C(O)CN1CCOCCN(CC(=O)O)CCN(CC(=O)*)CCOCCN(CC(=O)O)CC1; 2Nal = N[C@@H](Cc1ccc2ccccc2c1)C(=O)O; Lys(iPr) = CC(C)NCCCC[C@H](N)C(=O)O; Cya = N[C@@H](CS(=O)(=O)O)C(=O)O", "data": [{"smiles": "CC(C)NCCCC[C@H](NC(=O)[C@H]1CCC(=O)N[C@@H](CCCCNC(=O)[C@H](CS(=O)(=O)O)NC(=O)CN2CCOCCN(CC(=O)O)CCN(CC(=O)O)CCOCCN(CC(=O)O)CC2)C(=O)N[C@@H](Cc2ccc(O)cc2)C(=O)N[C@@H](CCCCNC(C)C)C(=O)N[C@H](CCCNC(=N)N)C(=O)N[C@@H](Cc2ccc3ccccc3c2)C(=O)N[C@H](C)C(=O)N1)C(N)=O", "note": "[[^177Lu]Lu-crown-BL34L20, metal not drawn] (K([Cya-X2])Y[Lys(iPr)][dR][2Nal][dA][dE][Lys(iPr)]-NH2; lactam N-7)", "values": [{"measurement": "tissue uptake at 1 h", "setting": "Adrenals", "result": 0.2, "unit": "%ID/g"}, {"measurement": "tissue uptake at 3 h", "setting": "Adrenals", "result": 0.11, "unit": "%ID/g"}, {"measurement": "tissue uptake at 24 h", "setting": "Adrenals", "result": 0.1, "unit": "%ID/g"}, {"measurement": "tissue uptake at 72 h", "setting": "Adrenals", "result": 0.08, "unit": "%ID/g"}, {"measurement": "tissue uptake at 120 h", "setting": "Adrenals", "result": 0.05, "unit": "%ID/g"}, {"measurement": "tissue uptake at 1 h", "setting": "Blood", "result": 0.35, "unit": "%ID/g"}, {"measurement": "tissue uptake at 3 h", "setting": "Blood", "result": 0.08, "unit": "%ID/g"}, {"measurement": "tissue uptake at 24 h", "setting": "Blood", "result": 0.02, "unit": "%ID/g"}, {"measurement": "tissue uptake at 72 h", "setting": "Blood", "result": 0.01, "unit": "%ID/g"}, {"measurement": "tissue uptake at 1 h", "setting": "Bone", "result": 0.15, "unit": "%ID/g"}, {"measurement": "tissue uptake at 3 h", "setting": "Bone", "result": 0.15, "unit": "%ID/g"}, {"measurement": "tissue uptake at 24 h", "setting": "Bone", "result": 0.51, "unit": "%ID/g"}, {"measurement": "tissue uptake at 72 h", "setting": "Bone", "result": 0.66, "unit": "%ID/g"}, {"measurement": "tissue uptake at 120 h", "setting": "Bone", "result": 0.56, "unit": "%ID/g"}, {"measurement": "tissue uptake at 1 h", "setting": "Brain", "result": 0.01, "unit": "%ID/g"}, {"measurement": "tissue uptake at 3 h", "setting": "Brain", "result": 0.01, "unit": "%ID/g"}, {"measurement": "tissue uptake at 24 h", "setting": "Brain", "result": 0.01, "unit": "%ID/g"}, {"measurement": "tissue uptake at 72 h", "setting": "Brain", "result": 0.01, "unit": "%ID/g"}, {"measurement": "tissue uptake at 1 h", "setting": "Heart", "result": 0.14, "unit": "%ID/g"}, {"measurement": "tissue uptake at 3 h", "setting": "Heart", "result": 0.06, "unit": "%ID/g"}, {"measurement": "tissue uptake at 24 h", "setting": "Heart", "result": 0.05, "unit": "%ID/g"}, {"measurement": "tissue uptake at 72 h", "setting": "Heart", "result": 0.05, "unit": "%ID/g"}, {"measurement": "tissue uptake at 120 h", "setting": "Heart", "result": 0.05, "unit": "%ID/g"}, {"measurement": "tissue uptake at 1 h", "setting": "Kidneys", "result": 3.02, "unit": "%ID/g"}, {"measurement": "tissue uptake at 3 h", "setting": "Kidneys", "result": 2.45, "unit": "%ID/g"}, {"measurement": "tissue uptake at 24 h", "setting": "Kidneys", "result": 1.81, "unit": "%ID/g"}, {"measurement": "tissue uptake at 72 h", "setting": "Kidneys", "result": 0.94, "unit": "%ID/g"}, {"measurement": "tissue uptake at 120 h", "setting": "Kidneys", "result": 0.59, "unit": "%ID/g"}, {"measurement": "tissue uptake at 1 h", "setting": "Liver", "result": 0.73, "unit": "%ID/g"}, {"measurement": "tissue uptake at 3 h", "setting": "Liver", "result": 0.77, "unit": "%ID/g"}, {"measurement": "tissue uptake at 24 h", "setting": "Liver", "result": 0.81, "unit": "%ID/g"}, {"measurement": "tissue uptake at 72 h", "setting": "Liver", "result": 0.67, "unit": "%ID/g"}, {"measurement": "tissue uptake at 120 h", "setting": "Liver", "result": 0.59, "unit": "%ID/g"}, {"measurement": "tissue uptake at 1 h", "setting": "Lungs", "result": 0.53, "unit": "%ID/g"}, {"measurement": "tissue uptake at 3 h", "setting": "Lungs", "result": 0.28, "unit": "%ID/g"}, {"measurement": "tissue uptake at 24 h", "setting": "Lungs", "result": 0.2, "unit": "%ID/g"}, {"measurement": "tissue uptake at 72 h", "setting": "Lungs", "result": 0.17, "unit": "%ID/g"}, {"measurement": "tissue uptake at 120 h", "setting": "Lungs", "result": 0.15, "unit": "%ID/g"}, {"measurement": "tissue uptake at 1 h", "setting": "Muscle", "result": 0.09, "unit": "%ID/g"}, {"measurement": "tissue uptake at 3 h", "setting": "Muscle", "result": 0.03, "unit": "%ID/g"}, {"measurement": "tissue uptake at 24 h", "setting": "Muscle", "result": 0.03, "unit": "%ID/g"}, {"measurement": "tissue uptake at 72 h", "setting": "Muscle", "result": 0.02, "unit": "%ID/g"}, {"measurement": "tissue uptake at 120 h", "setting": "Muscle", "result": 0.01, "unit": "%ID/g"}, {"measurement": "tissue uptake at 1 h", "setting": "Pancreas", "result": 0.12, "unit": "%ID/g"}, {"measurement": "tissue uptake at 3 h", "setting": "Pancreas", "result": 0.04, "unit": "%ID/g"}, {"measurement": "tissue uptake at 24 h", "setting": "Pancreas", "result": 0.04, "unit": "%ID/g"}, {"measurement": "tissue uptake at 72 h", "setting": "Pancreas", "result": 0.03, "unit": "%ID/g"}, {"measurement": "tissue uptake at 120 h", "setting": "Pancreas", "result": 0.03, "unit": "%ID/g"}, {"measurement": "tissue uptake at 1 h", "setting": "Small Intestine", "result": 0.23, "unit": "%ID/g"}, {"measurement": "tissue uptake at 3 h", "setting": "Small Intestine", "result": 0.1, "unit": "%ID/g"}, {"measurement": "tissue uptake at 24 h", "setting": "Small Intestine", "result": 0.17, "unit": "%ID/g"}, {"measurement": "tissue uptake at 72 h", "setting": "Small Intestine", "result": 0.08, "unit": "%ID/g"}, {"measurement": "tissue uptake at 120 h", "setting": "Small Intestine", "result": 0.06, "unit": "%ID/g"}, {"measurement": "tissue uptake at 1 h", "setting": "Spleen", "result": 0.29, "unit": "%ID/g"}, {"measurement": "tissue uptake at 3 h", "setting": "Spleen", "result": 0.23, "unit": "%ID/g"}, {"measurement": "tissue uptake at 24 h", "setting": "Spleen", "result": 0.26, "unit": "%ID/g"}, {"measurement": "tissue uptake at 72 h", "setting": "Spleen", "result": 0.24, "unit": "%ID/g"}, {"measurement": "tissue uptake at 120 h", "setting": "Spleen", "result": 0.22, "unit": "%ID/g"}, {"measurement": "tissue uptake at 1 h", "setting": "Stomach", "result": 0.08, "unit": "%ID/g"}, {"measurement": "tissue uptake at 3 h", "setting": "Stomach", "result": 0.09, "unit": "%ID/g"}, {"measurement": "tissue uptake at 24 h", "setting": "Stomach", "result": 0.52, "unit": "%ID/g"}, {"measurement": "tissue uptake at 72 h", "setting": "Stomach", "result": 0.12, "unit": "%ID/g"}, {"measurement": "tissue uptake at 120 h", "setting": "Stomach", "result": 0.14, "unit": "%ID/g"}, {"measurement": "tissue uptake at 1 h", "setting": "Testes", "result": 0.11, "unit": "%ID/g"}, {"measurement": "tissue uptake at 3 h", "setting": "Testes", "result": 0.04, "unit": "%ID/g"}, {"measurement": "tissue uptake at 24 h", "setting": "Testes", "result": 0.04, "unit": "%ID/g"}, {"measurement": "tissue uptake at 72 h", "setting": "Testes", "result": 0.03, "unit": "%ID/g"}, {"measurement": "tissue uptake at 120 h", "setting": "Testes", "result": 0.03, "unit": "%ID/g"}, {"measurement": "tissue uptake at 1 h", "setting": "Z138 Tumor", "result": 13.7, "unit": "%ID/g"}, {"measurement": "tissue uptake at 3 h", "setting": "Z138 Tumor", "result": 11.7, "unit": "%ID/g"}, {"measurement": "tissue uptake at 24 h", "setting": "Z138 Tumor", "result": 7.28, "unit": "%ID/g"}, {"measurement": "tissue uptake at 72 h", "setting": "Z138 Tumor", "result": 3.47, "unit": "%ID/g"}, {"measurement": "tissue uptake at 120 h", "setting": "Z138 Tumor", "result": 2.38, "unit": "%ID/g"}, {"measurement": "tissue to tissue ratio at 1 h", "setting": "Tumor-to-Blood ratio", "result": 39.4}, {"measurement": "tissue to tissue ratio at 3 h", "setting": "Tumor-to-Blood ratio", "result": 147}, {"measurement": "tissue to tissue ratio at 24 h", "setting": "Tumor-to-Blood ratio", "result": 301}, {"measurement": "tissue to tissue ratio at 72 h", "setting": "Tumor-to-Blood ratio", "result": 396}, {"measurement": "tissue to tissue ratio at 120 h", "setting": "Tumor-to-Blood ratio", "result": 607}, {"measurement": "tissue to tissue ratio at 1 h", "setting": "Tumor-to-Bone ratio", "result": 94}, {"measurement": "tissue to tissue ratio at 3 h", "setting": "Tumor-to-Bone ratio", "result": 83.2}, {"measurement": "tissue to tissue ratio at 24 h", "setting": "Tumor-to-Bone ratio", "result": 15.3}, {"measurement": "tissue to tissue ratio at 72 h", "setting": "Tumor-to-Bone ratio", "result": 5.53}, {"measurement": "tissue to tissue ratio at 120 h", "setting": "Tumor-to-Bone ratio", "result": 5.33}, {"measurement": "tissue to tissue ratio at 1 h", "setting": "Tumor-to-Kidney ratio", "result": 4.54}, {"measurement": "tissue to tissue ratio at 3 h", "setting": "Tumor-to-Kidney ratio", "result": 4.78}, {"measurement": "tissue to tissue ratio at 24 h", "setting": "Tumor-to-Kidney ratio", "result": 4.01}, {"measurement": "tissue to tissue ratio at 72 h", "setting": "Tumor-to-Kidney ratio", "result": 3.69}, {"measurement": "tissue to tissue ratio at 120 h", "setting": "Tumor-to-Kidney ratio", "result": 4.1}, {"measurement": "tissue to tissue ratio at 1 h", "setting": "Tumor-to-Muscle ratio", "result": 161}, {"measurement": "tissue to tissue ratio at 3 h", "setting": "Tumor-to-Muscle ratio", "result": 430}, {"measurement": "tissue to tissue ratio at 24 h", "setting": "Tumor-to-Muscle ratio", "result": 281}, {"measurement": "tissue to tissue ratio at 72 h", "setting": "Tumor-to-Muscle ratio", "result": 175}, {"measurement": "tissue to tissue ratio at 120 h", "setting": "Tumor-to-Muscle ratio", "result": 178}, {"measurement": "tissue to tissue ratio at 1 h", "setting": "Tumor-to-Pancreas ratio", "result": 140}, {"measurement": "tissue to tissue ratio at 3 h", "setting": "Tumor-to-Pancreas ratio", "result": 276}, {"measurement": "tissue to tissue ratio at 24 h", "setting": "Tumor-to-Pancreas ratio", "result": 198}, {"measurement": "tissue to tissue ratio at 72 h", "setting": "Tumor-to-Pancreas ratio", "result": 103}, {"measurement": "tissue to tissue ratio at 120 h", "setting": "Tumor-to-Pancreas ratio", "result": 78}]}]}
